Measurements taken from patent publication US20110294728.
pIC50: −log10 of the molar value. Where two headings read alike, the source gives them in different places.

Experiments:
HIV-1 integrase (HIV-1) = assay: FP
[1] = biological target: monomeric p51 subunit of HIV-1 RT (UniProt P03366); assay: stopped-flow, FRET between Trp of RT and bis-ANS, without PAW
[2] = biological target: monomeric p51 subunit of HIV-1 RT (UniProt P03366); assay: stopped-flow, FRET between Trp of RT and bis-ANS, RT incubated with PAW

Substance | pIC50 (HIV-1 integrase (HIV-1)) | IC50 (HIV-1 integrase (HIV-1); 3'-processing active, value is IC50 of PAW peptide, 10 mM MgCl2, 37 C) | kdis (dissociation rate constant of the RT heterodimer in 10% acetonitrile) [1] | kdis (dissociation rate constant of the RT heterodimer in 10% acetonitrile) [2]
21-mer U5 LTR end oligonucleotide | 4.82 | 12.7 µM |  | 
monomeric p66 subunit of HIV-1 RT |  |  | a dissociation rate constant kdis of 5.30±0.01 s^-1 | kdis=1.42±0.007 s^-1
